According to article PMC5564220:

Assays:
[1] = biological target: Rvb1ΔDII/Rvb2ΔDII complex (S. cerevisiae) (UniProt Q03940); assay: native MS
[2] = biological target: Rvb1/his-Rvb2 complex (S. cerevisiae) (UniProt Q03940); assay: native MS

Rvb1ΔDII/Rvb2ΔDII complex, sequence (Q03940 whole entry, stated change not applied): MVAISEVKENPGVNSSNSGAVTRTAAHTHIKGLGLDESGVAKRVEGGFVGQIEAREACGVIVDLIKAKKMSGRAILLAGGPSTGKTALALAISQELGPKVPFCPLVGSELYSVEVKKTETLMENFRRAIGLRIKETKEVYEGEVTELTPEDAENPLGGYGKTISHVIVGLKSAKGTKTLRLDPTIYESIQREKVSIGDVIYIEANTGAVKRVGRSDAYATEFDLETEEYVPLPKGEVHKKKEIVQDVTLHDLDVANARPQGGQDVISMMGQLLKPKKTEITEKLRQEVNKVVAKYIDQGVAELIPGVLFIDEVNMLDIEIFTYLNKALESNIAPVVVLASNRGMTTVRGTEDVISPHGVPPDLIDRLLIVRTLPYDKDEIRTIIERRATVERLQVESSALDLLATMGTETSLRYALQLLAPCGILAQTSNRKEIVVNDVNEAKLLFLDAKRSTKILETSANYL
Rvb1ΔDII/Rvb2ΔDII complex, sequence (Q12464 whole entry, stated change not applied): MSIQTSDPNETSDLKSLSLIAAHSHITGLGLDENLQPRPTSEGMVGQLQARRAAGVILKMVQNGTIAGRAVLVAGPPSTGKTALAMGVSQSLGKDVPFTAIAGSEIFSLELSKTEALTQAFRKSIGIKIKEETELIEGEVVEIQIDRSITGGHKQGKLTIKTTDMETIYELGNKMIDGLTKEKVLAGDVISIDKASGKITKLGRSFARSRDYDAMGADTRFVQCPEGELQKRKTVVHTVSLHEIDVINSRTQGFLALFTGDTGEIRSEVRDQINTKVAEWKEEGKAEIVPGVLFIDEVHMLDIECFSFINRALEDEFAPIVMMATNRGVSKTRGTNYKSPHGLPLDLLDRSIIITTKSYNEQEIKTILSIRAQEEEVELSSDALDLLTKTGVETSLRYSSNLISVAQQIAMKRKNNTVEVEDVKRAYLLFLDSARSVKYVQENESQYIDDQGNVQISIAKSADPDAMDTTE

Substance | percent of dodecamer in the population [1] | percent of hexamers in the population [2] | percent of the dodecamer dissociated into hexamers [2]
Rvb1ΔDII/Rvb2ΔDII complex (from UniProt Q03940 1-463; Q12464 1-471) | 3% |  | 
Rvb1/his-Rvb2 complex (from UniProt Q03940 1-463; Q12464 1-471) |  | 0% | 14%
